Reference: the supplement of paper PMC10567573

B1: ZNF263 (parent)
chain: PEASHLRFRRFRFQEAAGPREALS

Variants of: B1
Experiment: protein stability index of a GFP-peptide fusion (GPS, HEK-293T) (PSI 1-6); higher = more stable
Details: c terminus: a fixed tail appended
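Note: lentivirally expressed fusions sorted by FACS into six bins by GFP to DsRed ratio, PSI derived from sequencing read proportions per bin multiplied by bin number.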

Protein stability index: each site, then its substitutions
S24: E 2.79, H 2.68, W 2.37, K 2.76, R 2.69, P 2.57, T 2.22, G 2.3, Y 2.37, F 2.07, Q 2.49, L 2.65, M 2.19, V 2.2, D 3.06
R10: I 1.86, K 2.65, M 3.12, C 2.28, Q 3.07, N 2.35, G 2.62, E 2.68, S 2.72, H 2.27, A 2.18, T 2.93, F 1.79, Y 1.91, W 3.23, V 1.26
P19: I 2.04, N 2.63, T 3.26, W 2.04, H 2.73, E 3.39, V 2.21, K 2.73, G 3.11, S 2.87, F 1.76
P1: Y 2.3, N 2.13, I 2.71, W 2.08, H 2.16, K 2.38, A 1.75, L 2.53, T 2.44
L23: Y 1.71, A 3.44, Q 2.97, W 1.91, P 2.9, F 2.58, H 3.05, E 3.5, R 3.11, I 2.48, M 2.45, S 3.28, G 3.04, V 2.93, D 3.75, K 3.35, T 2.84
Q14: G 3.68, P 3.29, R 2.59, W 2.87, L 3.22, S 2.87, V 2.5, E 3.23, A 1.81, C 1.89, M 2.93, Y 2.26, N 3, K 3.34
R12: Y 2.4, Q 4.36, K 3.64, T 3.59, A 3.32, G 3.28, H 3.14, L 2.99, W 2.56, M 3.46, C 1.81, F 2.19, V 3.61, D 3.93, S 4.05, P 3.39, N 3.77
R9: M 2.78, G 3.36, A 3.18, T 3.32, E 2.21, Q 3.44, N 3.08, L 2.8, W 1.62, H 1.98, V 2.21, F 2.29, D 2.69, C 2.44
S4: G 2.76, I 1.7, T 2.76, D 2.92, K 2.04, R 2.19, A 2.4, N 2.8, M 3.15, Q 2.19, L 1.83, H 2.04, C 2.87, E 2.97, W 3.12
F8: Y 2.76, H 3.23, T 3.4, E 3.98, K 3.29, M 2.8, L 2.84, G 3.29, R 3.55, W 1.94, D 3.08, I 3.43
R20: A 3.17, T 2.65, W 1.49, G 2.25, P 2.24, C 2.21, F 1.62, Q 2.7, L 2.29, I 2.48, S 2.58, E 3.35, Y 1.49, V 2.65, K 2.38
H5: C 2.55, R 2.68, V 2.15, D 3.21, E 2.47, Q 3.04, W 2.44, A 2.61, T 2.89, S 2.29, F 2.12, P 1.49, N 2.31
E15: N 2.68, H 2.04, F 1.53, V 2.12, K 2.04, W 2.15, T 2.74, M 2.38, A 2.73, C 2.31, P 2.32, I 1.78, R 1.98
A17: R 2.15, N 2.78, D 3.42, P 2.55, W 2.69, M 2.1, S 2.54, I 2.15, Q 2.75, G 2.58
E2: N 2.52, Q 2.11, L 1.29, A 2.88, G 2.12, F 1.73, M 1.75, C 1.08, Y 1.82, H 2, I 1.72, D 3.22, W 1.52, R 2.84
F13: W 3.58, V 3.61, L 2.65, M 3.59, G 4.17, I 3.28, E 3.86, N 3.8, C 2.75, T 4.15, A 3.97, P 3.9, Q 4.18, S 4.01, R 3.56, Y 2.3, D 4.81
F11: R 4.91, K 3.85, H 4.01, G 3.89, D 3.66, M 3.61, Q 4.13, Y 2.76, C 2.45, T 4.16, P 4.66, N 4.33, L 2.66, S 3.53
L6: D 3.62, M 2.54, W 2.37, T 1.98, K 2.73, P 3.03, N 3.03, I 2.42, E 3.61, Q 3.63, S 3.23, H 3.46, F 2.75, V 3.36
R7: S 2.68, L 2.08, K 2.92, C 2.5, P 2.35, I 1.8, A 3.14, H 2.93, Y 2.36, G 3.45, E 3.26, W 3.63, F 2.28
A22: S 2.77, M 2.37, K 2.77, G 2.98, I 2.28, D 3.38, V 2.15, Y 2.29, T 2.74, L 2.51, E 3.15, P 3.7, F 2.6, R 2.8, C 2.65
E21: V 1.85, Y 2.58, C 2.14, I 2.04, M 2.98, T 2.66, P 2.89, K 2.45, S 2.74, Q 3.03, R 2.87, N 2.71, G 2.4, D 2.54, W 2.01, L 2.41
A16: V 2.31, I 2.85, G 2.43, H 3, S 3.54, E 2.36, M 2.15, T 2.11, R 2.88, N 2.69, D 2.99, W 2.65
A3: H 2.84, R 2.71, Y 2.38, N 1.98, C 2.95, Q 2.55, W 1.97, D 3.1, K 2, V 1.73, L 2.4, M 3.55
G18: M 2.7, R 2.65, H 2.98, F 2.26, Y 2.14, A 2.27, T 2.97, D 2.64, S 2.96, C 2.67, I 2.35, Q 2.81, P 3.36, W 1.88, V 2.38, L 2.21
